Residue numbers refer to the chain shown, from its start.
T1: Cas12i (wild-type, from CN111757889B)
T1 chain: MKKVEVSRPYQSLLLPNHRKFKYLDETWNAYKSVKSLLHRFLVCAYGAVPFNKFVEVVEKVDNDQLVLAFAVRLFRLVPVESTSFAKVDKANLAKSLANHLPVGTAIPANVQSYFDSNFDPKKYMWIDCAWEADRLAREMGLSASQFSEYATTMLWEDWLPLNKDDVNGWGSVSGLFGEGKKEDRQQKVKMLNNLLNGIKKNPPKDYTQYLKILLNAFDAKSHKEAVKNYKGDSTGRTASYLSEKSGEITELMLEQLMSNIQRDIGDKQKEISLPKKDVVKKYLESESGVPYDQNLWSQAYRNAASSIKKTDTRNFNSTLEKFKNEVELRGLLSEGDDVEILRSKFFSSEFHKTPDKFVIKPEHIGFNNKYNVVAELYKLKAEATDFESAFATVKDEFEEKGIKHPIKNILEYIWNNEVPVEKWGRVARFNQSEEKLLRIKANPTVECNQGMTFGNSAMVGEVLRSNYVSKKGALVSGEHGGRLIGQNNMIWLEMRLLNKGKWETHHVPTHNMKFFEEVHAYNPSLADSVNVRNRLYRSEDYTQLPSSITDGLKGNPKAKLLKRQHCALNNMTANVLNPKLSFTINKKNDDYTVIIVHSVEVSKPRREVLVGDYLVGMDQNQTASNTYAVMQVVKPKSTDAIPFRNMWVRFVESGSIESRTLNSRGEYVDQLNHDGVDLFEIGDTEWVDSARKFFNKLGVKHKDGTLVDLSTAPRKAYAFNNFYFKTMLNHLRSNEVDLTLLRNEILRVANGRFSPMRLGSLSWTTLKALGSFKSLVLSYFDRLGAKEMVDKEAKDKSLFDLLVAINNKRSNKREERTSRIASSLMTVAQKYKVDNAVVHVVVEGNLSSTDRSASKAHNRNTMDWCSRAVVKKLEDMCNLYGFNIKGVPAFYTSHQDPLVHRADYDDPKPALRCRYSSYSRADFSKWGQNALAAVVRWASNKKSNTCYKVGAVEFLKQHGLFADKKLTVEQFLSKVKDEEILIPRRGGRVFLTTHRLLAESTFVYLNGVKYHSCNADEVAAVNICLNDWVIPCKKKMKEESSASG

T2: Cas12i-30 (N295R,N260R)
T2 chain: T1 chain with N260R, N295R

B1: gRNA-TTR ; TTR target (ssRNA ; dsDNA)
RNA: AGAGAAUGUGUGCAUAGUCACACCAGUAAGAUUUGGUGUCUAU
DNA 1: CAGTAAGATTTGGTGTCTAT
DNA 2: ATAGACACCAAATCTTACTG
B2: gRNA-HBG ; HBG target (ssRNA ; dsDNA)
RNA: AGAGAAUGUGUGCAUAGUCACACACAAGGCAAACUUGACCAAU
DNA 1: ACAAGGCAAACTTGACCAAT
DNA 2: ATTGGTCAAGTTTGCCTTGT

Legend:
[1] = molecular target: T1, Cas12i (wild-type, from CN111757889B); assay: cell_activity; 293T indels, reference; PAM not stated
Protocol: (§1) Plating: The 293T cell line was plated when the confluence reached 70-80%, and the number of cells seeded in a 24-well plate was 5*10\hat{ }5 cells/well.
(§2) Transfection: After 12-14 hours of plating, transfection was performed. 100 μl of Opti-MEM, 1.5 μl of PEI (Yisheng Bio, Polyethylenimine Linear (PEI) MW25000), 250 ng of the mutant clone plasmid from Example 2, and 250 ng of gRNA plasmid for targeting endogenous genes were added to each well of a 24-well plate. The mixture was incubated at room temperature for 20 minutes and then added to 293T cells for transfection. After transfection overnight, the medium was replaced with fresh medium and cultured for the next period.
(§3) DNA extraction, PCR amplification, and Sanger sequencing: After culturing for 72 hours, cells were washed with PBS, and then 100 μl of cell lysis buffer (Viagen, DirectPCR® Lysis Reagent (Cell)) was added for lysis to obtain a lysate containing genomic DNA. The genomic DNA was amplified in the region near the target sequence, and the PCR product was sent to a sequencing company for Sanger sequencing.

Cas12i-30 = molecular target: T2, Cas12i-30; assay: cell_activity; 293T indels; editing >10%
Protocol: as §1, §2, §3

| Binder | indel editing activity [1] | relative indel editing efficiency (Cas12i-30) |
| --- | --- | --- |
| B1 | 1 fold of wild type | 1.89 fold of wild type |
| B2 | 1 fold of wild type | – |

From patent US20260250651, “CAS12 PROTEINS AND USES THEREOF” (GUANGZHOU REFORGENE MEDICINE CO., LTD., published 2026)
